Results on 6 substances are retold here after publication PMC9596277.

The target in assay [1] is commercially available palivizumab (Synagis) (human). The experiment in a line: SPR; same set-up as the kinetic SPR (palivizumab captured on Protein A, FcγRIIIA injected); value told as steady state binding.
Assay [2] deals with afucosylated agalactosylated (G0) palivizumab glycoform (human). The assay can be described thus: SPR; Biacore T200, 25°C, PBS with 0.05% Tween 20 and 3.4 mM EDTA; palivizumab analogues captured on immobilised Protein A (CM-5); FcγRIIIA injected, single-cycle kinetics, 2.3 nM to 0.56 µM; 1:1 binding model, KD from the ratio of the rate constants; three repeats. A general note: Surface plasmon resonance follows binding to a sensor surface in real time, without labels.
Chain of afucosylated agalactosylated (G0) palivizumab glycoform (human) (heavy, as listed by the source, chain 1 of 2): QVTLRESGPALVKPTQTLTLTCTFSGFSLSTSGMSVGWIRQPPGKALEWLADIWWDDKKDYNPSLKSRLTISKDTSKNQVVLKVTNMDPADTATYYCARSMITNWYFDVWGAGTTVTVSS
Chain of afucosylated agalactosylated (G0) palivizumab glycoform (human) (light, as listed by the source, chain 2 of 2): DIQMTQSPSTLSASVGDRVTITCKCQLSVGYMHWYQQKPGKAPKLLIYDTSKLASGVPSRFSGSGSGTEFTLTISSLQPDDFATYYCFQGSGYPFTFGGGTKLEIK

In assay [3] the target is afucosylated palivizumab glycoform monogalactosylated at the α3 antenna (G1(3)) (human). The assay is described as above.
Chain of afucosylated palivizumab glycoform monogalactosylated at the α3 antenna (G1(3)) (human) (heavy, as listed by the source, chain 1 of 2): as the sequence (heavy, as listed by the source, chain 1 of 2) above
Chain of afucosylated palivizumab glycoform monogalactosylated at the α3 antenna (G1(3)) (human) (light, as listed by the source, chain 2 of 2): as the sequence (light, as listed by the source, chain 2 of 2) above
Assay [4] deals with afucosylated palivizumab glycoform monogalactosylated at the α6 antenna (G1(6)) (human). Described as above.
Chain of afucosylated palivizumab glycoform monogalactosylated at the α6 antenna (G1(6)) (human) (heavy, as listed by the source, chain 1 of 2): as the sequence (heavy, as listed by the source, chain 1 of 2) above
Chain of afucosylated palivizumab glycoform monogalactosylated at the α6 antenna (G1(6)) (human) (light, as listed by the source, chain 2 of 2): as the sequence (light, as listed by the source, chain 2 of 2) above
The target of assay [5] is digalactosylated afucosylated (G2) palivizumab glycoform (human). The description is as above.
Chain of digalactosylated afucosylated (G2) palivizumab glycoform (human) (heavy, as listed by the source, chain 1 of 2): as the sequence (heavy, as listed by the source, chain 1 of 2) above
Chain of digalactosylated afucosylated (G2) palivizumab glycoform (human) (light, as listed by the source, chain 2 of 2): as the sequence (light, as listed by the source, chain 2 of 2) above
The target of assay [6] is FcγRIIIa (CD16A) F176 on NK92-GFP-CD16A cells (F variant) (human) (UniProt P08637). The experiment in a line: flow cytometry on cells; NK92-GFP-CD16A cells (V or F variant) with 2.5-fold serial dilutions of palivizumab glycoforms in 1% BSA/PBS, 4°C, 30 min; detected with Alexa Fluor 647 anti-human IgG F(ab')2-specific fragment; % GFP+AF647+ cells. A general note: In flow cytometry, cells or beads pass a laser one at a time.

In assay [7] the target is FcγRIIIa (CD16A) V176 on NK92-GFP-CD16A cells (V variant) (human) (UniProt P08637).

Chain of commercially available palivizumab (Synagis) (human) (heavy, as listed by the source, chain 1 of 2): as the sequence (heavy, as listed by the source, chain 1 of 2) above
Chain of commercially available palivizumab (Synagis) (human) (light, as listed by the source, chain 2 of 2): as the sequence (light, as listed by the source, chain 2 of 2) above

Turning to “FcγRIIIA CD16A high binding (V) variant, National Research Council (Canada) (from UniProt P08637 17-254) (receptor)”, the Kd in assay [1] came to 1000 nM; in assay [2], 110 nM; in assay [3], 110 nM; in assay [4], 6 nM; in assay [5], 5.9 nM.
On to “FcγRIIIA CD16A low binding (F) variant, National Research Council (Canada) (from UniProt P08637 17-254) (receptor)”, for which the Kd in assay [2] was 60 nM; in assay [3], 60 nM; in assay [4] it was 25 to 31 nM; in assay [5], 25.6 nM.
In assay [6], “afucosylated agalactosylated (G0) palivizumab glycoform (antibody)” returned a maximum percent of cells bound of 30%.
Substance “afucosylated palivizumab glycoform monogalactosylated at the α3 antenna (G1(3)) (antibody)” yielded a maximum percent of cells bound in assay [6] of 30%.
In turn, “afucosylated palivizumab glycoform monogalactosylated at the α6 antenna (G1(6)) (antibody)” displayed an ADCC reporter assay (Jurkat T-cell luciferase reporter cells, CD16A V variant; RSV-infected Hep2 cells), activity against the G0 glycoform in assay [7] of 2 fold.
Consider “digalactosylated afucosylated (G2) palivizumab glycoform (antibody)”, for which the ADCC reporter assay (Jurkat T-cell luciferase reporter cells, CD16A V variant; RSV-infected Hep2 cells), activity against the G0 glycoform in assay [7] was found to be 2 fold.

One may read the Kd as a measure of binding affinity in units of concentration.
